According to article doi:10.1101/2025.06.17.660062 (bioRxiv, 2025):

How the values were obtained:
[1] = molecular target: mCherry-RZZ (ROD-Zwilch-ZW10 complex, wild type) (UniProt P50748 1-2209; Q9H900 1-591; O43264 1-779); test: SEC
[2] = molecular target: R^EEZZ (RZZ with phosphomimetic ROD T13E-S15E) (UniProt P50748 1-2209; Q9H900 1-591; O43264 1-779, T13E | S15E); test: pull-down
Sequence of R^EEZZ (RZZ with phosphomimetic ROD T13E-S15E) (P50748 whole entry T13E/S15E, chain 1 of 3): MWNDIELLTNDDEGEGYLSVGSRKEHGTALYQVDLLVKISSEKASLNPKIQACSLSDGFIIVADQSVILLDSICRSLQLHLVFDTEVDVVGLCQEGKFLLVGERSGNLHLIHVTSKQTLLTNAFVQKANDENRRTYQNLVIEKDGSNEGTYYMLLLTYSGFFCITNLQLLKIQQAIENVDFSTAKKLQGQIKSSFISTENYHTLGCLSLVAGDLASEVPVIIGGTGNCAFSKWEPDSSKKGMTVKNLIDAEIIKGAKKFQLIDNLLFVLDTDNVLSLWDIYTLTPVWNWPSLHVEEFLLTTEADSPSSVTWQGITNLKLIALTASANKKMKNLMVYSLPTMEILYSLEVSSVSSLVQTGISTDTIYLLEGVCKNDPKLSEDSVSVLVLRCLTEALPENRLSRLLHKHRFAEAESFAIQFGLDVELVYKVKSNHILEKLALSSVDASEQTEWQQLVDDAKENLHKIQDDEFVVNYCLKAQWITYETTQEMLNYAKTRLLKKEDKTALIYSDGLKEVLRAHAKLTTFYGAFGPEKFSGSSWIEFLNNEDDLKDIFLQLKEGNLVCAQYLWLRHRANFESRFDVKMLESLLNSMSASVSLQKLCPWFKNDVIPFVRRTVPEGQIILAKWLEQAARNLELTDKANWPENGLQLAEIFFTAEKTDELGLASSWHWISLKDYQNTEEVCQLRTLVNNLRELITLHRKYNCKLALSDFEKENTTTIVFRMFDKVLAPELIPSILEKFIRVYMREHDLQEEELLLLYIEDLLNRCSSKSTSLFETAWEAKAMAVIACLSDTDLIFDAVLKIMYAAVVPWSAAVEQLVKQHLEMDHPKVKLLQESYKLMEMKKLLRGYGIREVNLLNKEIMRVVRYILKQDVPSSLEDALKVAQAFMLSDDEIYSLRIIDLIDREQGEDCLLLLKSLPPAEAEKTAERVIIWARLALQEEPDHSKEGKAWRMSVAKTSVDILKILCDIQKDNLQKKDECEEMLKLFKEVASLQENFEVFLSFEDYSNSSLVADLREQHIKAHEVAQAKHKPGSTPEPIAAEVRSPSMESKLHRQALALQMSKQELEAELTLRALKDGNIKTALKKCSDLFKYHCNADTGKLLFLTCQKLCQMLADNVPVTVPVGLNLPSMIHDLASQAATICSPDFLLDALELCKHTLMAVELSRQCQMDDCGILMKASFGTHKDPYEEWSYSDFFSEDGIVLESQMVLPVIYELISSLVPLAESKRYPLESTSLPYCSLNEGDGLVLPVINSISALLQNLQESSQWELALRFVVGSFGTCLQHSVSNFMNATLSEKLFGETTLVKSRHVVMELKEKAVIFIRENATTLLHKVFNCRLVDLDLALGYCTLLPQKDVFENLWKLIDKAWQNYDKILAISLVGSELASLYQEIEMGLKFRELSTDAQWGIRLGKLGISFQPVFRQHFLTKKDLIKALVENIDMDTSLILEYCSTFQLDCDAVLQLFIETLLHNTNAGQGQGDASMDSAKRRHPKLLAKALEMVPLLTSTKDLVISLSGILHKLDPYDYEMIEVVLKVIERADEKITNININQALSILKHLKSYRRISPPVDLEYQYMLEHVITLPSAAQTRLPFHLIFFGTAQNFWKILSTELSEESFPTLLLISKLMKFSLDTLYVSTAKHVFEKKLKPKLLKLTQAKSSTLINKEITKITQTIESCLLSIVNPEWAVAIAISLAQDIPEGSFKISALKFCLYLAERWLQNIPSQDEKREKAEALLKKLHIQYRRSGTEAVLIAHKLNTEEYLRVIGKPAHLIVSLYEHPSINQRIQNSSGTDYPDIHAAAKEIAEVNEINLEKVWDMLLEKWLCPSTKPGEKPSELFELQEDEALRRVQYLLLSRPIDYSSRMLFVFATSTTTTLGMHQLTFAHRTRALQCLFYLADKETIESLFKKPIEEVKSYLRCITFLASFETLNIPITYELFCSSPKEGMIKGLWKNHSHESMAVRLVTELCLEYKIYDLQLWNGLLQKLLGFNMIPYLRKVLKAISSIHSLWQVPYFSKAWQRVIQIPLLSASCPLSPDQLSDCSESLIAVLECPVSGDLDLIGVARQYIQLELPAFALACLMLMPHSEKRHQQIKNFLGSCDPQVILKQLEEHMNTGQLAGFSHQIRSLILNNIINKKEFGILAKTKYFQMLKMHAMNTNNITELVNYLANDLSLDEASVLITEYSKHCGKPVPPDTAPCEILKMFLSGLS
Sequence of R^EEZZ (RZZ with phosphomimetic ROD T13E-S15E) (Q9H900 whole entry, chain 2 of 3): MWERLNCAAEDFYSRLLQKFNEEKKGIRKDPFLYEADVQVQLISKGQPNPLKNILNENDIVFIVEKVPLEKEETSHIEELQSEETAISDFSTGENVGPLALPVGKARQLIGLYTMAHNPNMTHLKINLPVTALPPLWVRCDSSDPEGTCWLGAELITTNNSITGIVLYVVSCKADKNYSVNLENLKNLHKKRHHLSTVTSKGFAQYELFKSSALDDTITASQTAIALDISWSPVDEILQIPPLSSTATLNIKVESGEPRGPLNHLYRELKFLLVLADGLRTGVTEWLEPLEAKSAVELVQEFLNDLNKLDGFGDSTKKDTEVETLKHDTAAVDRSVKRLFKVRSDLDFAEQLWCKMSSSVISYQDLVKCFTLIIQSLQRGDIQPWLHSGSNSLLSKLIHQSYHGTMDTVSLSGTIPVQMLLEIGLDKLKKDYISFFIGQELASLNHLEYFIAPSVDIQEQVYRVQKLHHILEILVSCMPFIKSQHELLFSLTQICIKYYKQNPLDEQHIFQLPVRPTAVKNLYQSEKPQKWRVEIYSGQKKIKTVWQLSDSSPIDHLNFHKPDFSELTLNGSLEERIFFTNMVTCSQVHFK
Sequence of R^EEZZ (RZZ with phosphomimetic ROD T13E-S15E) (O43264 whole entry, chain 3 of 3): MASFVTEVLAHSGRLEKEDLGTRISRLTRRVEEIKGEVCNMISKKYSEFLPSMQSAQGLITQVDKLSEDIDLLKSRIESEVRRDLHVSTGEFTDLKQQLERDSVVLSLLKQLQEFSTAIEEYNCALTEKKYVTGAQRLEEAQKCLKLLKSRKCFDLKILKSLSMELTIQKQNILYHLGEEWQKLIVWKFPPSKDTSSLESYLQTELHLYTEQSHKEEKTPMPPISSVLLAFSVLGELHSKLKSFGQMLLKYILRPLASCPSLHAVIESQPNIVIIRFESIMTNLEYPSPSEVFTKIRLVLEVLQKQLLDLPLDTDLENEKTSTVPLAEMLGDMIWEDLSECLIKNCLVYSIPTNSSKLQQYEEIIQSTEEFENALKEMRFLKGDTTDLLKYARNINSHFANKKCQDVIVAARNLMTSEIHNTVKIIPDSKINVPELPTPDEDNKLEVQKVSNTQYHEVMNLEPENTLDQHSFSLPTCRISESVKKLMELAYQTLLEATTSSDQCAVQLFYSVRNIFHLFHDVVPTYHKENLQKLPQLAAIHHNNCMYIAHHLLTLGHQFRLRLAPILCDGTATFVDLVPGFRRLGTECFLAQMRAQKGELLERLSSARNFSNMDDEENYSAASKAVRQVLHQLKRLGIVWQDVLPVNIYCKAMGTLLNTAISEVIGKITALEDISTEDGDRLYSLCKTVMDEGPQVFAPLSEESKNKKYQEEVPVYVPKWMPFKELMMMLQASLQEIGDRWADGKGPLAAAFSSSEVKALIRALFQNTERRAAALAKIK

Sequence of mCherry-RZZ (ROD-Zwilch-ZW10 complex, wild type) (P50748 whole entry, chain 1 of 3): as the sequence (P50748 whole entry T13E/S15E, chain 1 of 3) above, with E13T, E15S counted along it
Sequence of mCherry-RZZ (ROD-Zwilch-ZW10 complex, wild type) (Q9H900 whole entry, chain 2 of 3): as the sequence (Q9H900 whole entry, chain 2 of 3) above
Sequence of mCherry-RZZ (ROD-Zwilch-ZW10 complex, wild type) (O43264 whole entry, chain 3 of 3): as the sequence (O43264 whole entry, chain 3 of 3) above

binding result [1]: binds
binding result [2]: binds
B1: GST-BUB1^467-521 (domain or fragment, UniProt O43683 467-521, looked up)
chain: ALGFIMNMFQAPTLPDISDDKDEWQSLDQNEDAFEAQFQKNVRSSGAWGVNKIIS
